This is an account of results in the nanobody polyreactivity screen of Harvey et al. (2022).

This data set can be described thus: yeast display, Sf9 membrane polyspecificity reagent, FACS + sequencing; frameworks hold sequencing errors. The procedure, abridged: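 Synthetic nanobody libraries on Saccharomyces cerevisiae BJ5465 were galactose-induced for 36–48 hours, stained 1 hour at 4 °C with 10% biotinylated, detergent-solubilized Sf9 membrane reagent and enriched on streptavidin microbeads. FACS then separated cells into low and high (top ~1%) gates by anti-HA (expression) and streptavidin (reagent binding) fluorescence. Genes were colony-PCR amplified, MiSeq 2 × 250 sequenced and CDR-length filtered. A clone's polyreactivity label is that of its gate of origin.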
“QVQLVESGGGLVQAGGSLRLSCAASGRTFYNYAMGWYRQAHGKERELVAAIDWGSDSTYYADYVKGRFTISRDNANNTVYLQMNRLKPEDTAVYYCAAYLVSVNSRTYDYWGQGTQVTVSS”: the “polyreactivity (PSR sort gate)” value is “low polyreactivity”.

For the sequence “QVQLVESGGGLVQAGGSLRLSCAASGRTFYNYAMGWYRQAPGKEREFVAAISSSGGSTYYADSVKGRFTISRDNAKNTVYLQMNSLKPEDTAVYYCAAYYISFDYWGQGTKVTVSS”, the “polyreactivity (PSR sort gate)” value is “high polyreactivity”.

“QVQLVESGGGLVQAGGSLRLSCAASGRTFYNYAMGWYRQAPGKERELVATINRGVSTNYADSVKGRFTISRDNEKNTVYLQMNSLKPEDTAVYYCAARKRPPYGYGYWGQGTQVTVSS”: the “polyreactivity (PSR sort gate)” value is listed as “high polyreactivity”.

On to “QVQLVESGGGLVQAGGSLRLSCAASGRTFYPNAMGWYRQAPGKERELVAAISWSGGSTYYADSVKGRFTISRDNAKNTVYLQMNSLKPEDTAVYYCNARYLYWALSYDYWGQGTQVTVSS”, for which the “polyreactivity (PSR sort gate)” value is “low polyreactivity”.

For “QVQLVESGGGLVQAGGSLRLSCAASGRTFYPNAMGWYRQAPGKERELVAAITRSGGRTYYADSVKGRFTISRDNAKNTVYLQMNSLKPEDTAVYYCNADLYYHYYKYEYWGQGTQVTVSS”, the “polyreactivity (PSR sort gate)” value is recorded as “low polyreactivity”.

For the sequence “QVQLVESGGGLVQAGGSLRLSCAASGRTFYPNTMGWYRQAPGKERELVATITRSGGNTYADSVKGRFTISRDNAKNTVYLQMNSLKPEDTAVYYCNADQRRSYWLVSQRYDYWGQGTQVTVSS”, the “polyreactivity (PSR sort gate)” value is recorded as “low polyreactivity”.

Take “QVQLVESGGGLVQAGGSLRLSCAASGRTFYPNVMGWYRQAPGKERELVAAISRGGSTYYADSVKGRFTISRDNAKNTVYLQMNSLKPEDTAVYYCAATHYGHSISYWFDYWGQGTQVTVSS”: the “polyreactivity (PSR sort gate)” value is listed as “high polyreactivity”.

On to “QVQLVESGGGLVQAGGSLRLSCAASGRTFYPNVMGWYRQAPGKERELVAAITSGGSTYYADSVKGRFTISRDNAKNTVYLQMNSLKPEDTAVYYCAVAYAGGGSRKYDYWGQGTQVTVSS”, for which the “polyreactivity (PSR sort gate)” value is “low polyreactivity”.

Turning to “QVQLVESGGGLVQAGGSLRLSCAASGRTFYPYAMGWYRQAPGKERELVAAIDYSSATTYYADSVKGRFTISRDNAKNTVYLQMNSLKPEDTAVFYCARVGIGVGWTKLNYWGQGTQVTVSS”, the “polyreactivity (PSR sort gate)” value is “low polyreactivity”.

For the sequence “QVQLVESGGGLVQAGGSLRLSCAASGRTFYPYAMGWYRQAPGKERELVAAISWNGGRTYYADSVKGRFTISRDNAKNTVYLQMTSLKPEDTAVYYCAADTAYYGFDYWGQGTQVTVSS”, the “polyreactivity (PSR sort gate)” value is recorded as “low polyreactivity”.

Turning to “QVQLVESGGGLVQAGGSLRLSCAASGRTFYPYAMGWYRQAPGKERELVARITSGGSTYADSVKGRFTISRDNAKNTVYLQMNSLKPEDTAVYYCNTDGYLLSRYPYSVQLYEYWGQGTQVTVSS”, the “polyreactivity (PSR sort gate)” value is “high polyreactivity”.

As to “QVQLVESGGGLVQAGGSLRLSCAASGRTFYPYAMGWYRQAPRKERELVAAISRSGGSTYADSVKGRFTISRDNAKNTVYLQMNSLKREDTAVYYCATRRKTYLSFNYDYWGQGTQVTVSS”, the “polyreactivity (PSR sort gate)” value is recorded as “low polyreactivity”.

Consider “QVQLVESGGGLVQAGGSLRLSCAASGRTFYRNAMGWYKQAPGKERELVAAISRSGGSTYYADSVKGRFTISRDNAKNTVYLQMNSLKPEDTAVYYCNKRYPLGTEYYYWGLGTQVTVSS”, for which the “polyreactivity (PSR sort gate)” value is reported as “high polyreactivity”.

As for “QVQLVESGGGLVQAGGSLRLSCAASGRTFYRNAMGWYRQAPGKERELVAAISSDDSTNYADSVKGRFTISRDNAKNTVYLQMNSQKPEDTAVYYCNADYYYGYEYDYWGQGTQVTVSS”, the “polyreactivity (PSR sort gate)” value is “low polyreactivity”.

For the sequence “QVQLVESGGGLVQAGGSLRLSCAASGRTFYRNAMGWYRQAPGKERELVAAISSRGGSTYYADSVKGRFTISRDNAKNSVYLQMNSLKPEDTAVYYCAATYGYGGDYDYWGQGTQVTVSS”, the “polyreactivity (PSR sort gate)” value was “high polyreactivity”.

Consider “QVQLVESGGGLVQAGGSLRLSCAASGRTFYRNAMGWYRQAPGKERELVASIRRNGGSTYYADSVKGRFTISRDNAKNTVYLQMNSLKPEDTAVYYCAARSTRRRIYGYWGQGSQVTVSS”, for which the “polyreactivity (PSR sort gate)” value was “high polyreactivity”.

In the case of “QVQLVESGGGLVQAGGSLRLSCAASGRTFYRNAMGWYRQAPGKERELVATITRGGSTNYADSVKGRFTISRDNAKNTVYLQMNSLKPEDTAVYYCAAAQPGTNAYRVGSWGQGTQVTVSS”, the “polyreactivity (PSR sort gate)” value is “high polyreactivity”.

As for “QVQLVESGGGLVQAGGSLRLSCAASGRTFYRNAMGWYRQATGKERELVAAISRGDSTYYADSVKGRFTISRDNAKKTVYLQMNSLKPEDTAVYYCAKRARRIGDVNMGSWGQGTQVTVSS”, the “polyreactivity (PSR sort gate)” value is given as “low polyreactivity”.

As for “QVQLVESGGGLVQAGGSLRLSCAASGRTFYRNTMGWYRQAPGKERELVAAITRSGGSTYYADSVKGRVTISRDNAKNTVYLQMNSLKPEDTAVYYCAASRTYYAPYGYWGQGTQVTVSS”, the “polyreactivity (PSR sort gate)” value is “high polyreactivity”.

Consider “QVQLVESGGGLVQAGGSLRLSCAASGRTFYRSALVWYRQAPGKERELVAAISYNGGSTFYADSVKGRFTISRDNAKYTVYLQMNSLKPEDTAVYYCAAGPRGTGKYYWGQGTQVTVSS”, for which the “polyreactivity (PSR sort gate)” value is on record as “high polyreactivity”.

Consider “QVQLVESGGGLVQAGGSLRLSCAASGRTFYRYAMGSYRQAPGKEREFVAVISTDGSSTYYADSVKGRFTISRDNAKNTVYLQMNSLKPEDTAVYYCNKYVYGHKYGYRYSGVQDYYYWGQGTQVTVSS”, for which the “polyreactivity (PSR sort gate)” value is recorded as “high polyreactivity”.

For “QVQLVESGGGLVQAGGSLRLSCAASGRTFYRYAMGWYRQAPGKEREFVAAISNGGSNTRYADSVKGRFTISRDNAKNTVYLQMNSLKPEDTAVYYCAADYKRNQEVDYWGQGTQVTVSS”, the “polyreactivity (PSR sort gate)” value is “high polyreactivity”.

“QVQLVESGGGLVQAGGSLRLSCAASGRTFYRYAMGWYRQAPGKERELVAAISSGGSTYYADSVKGRFTISRDNAKNTVYLQMNSLKPEDTAVYYCNADYGRRNHMDYWGQGTQVTVSS”: the “polyreactivity (PSR sort gate)” value is “low polyreactivity”.

In the case of “QVQLVESGGGLVQAGGSLRLSCAASGRTFYRYAMGWYRQAPGKERELVAAISYSGGSTYYADSVKGRFTISRDNAKNTVYLQMNSLKPEDTAVYYCNARPVKASYVGYNYWGQGTQVTVSS”, the “polyreactivity (PSR sort gate)” value is reported as “high polyreactivity”.

In the case of “QVQLVESGGGLVQAGGSLRLSCAASGRTFYRYAMGWYRQAPGKERELVAAITTSGGSTYYADSVKGRFTISRDNAKNTVYLQMNSLKPEDTSVYYCSATYYGYHIRDDYWGQGTQVTVSS”, the “polyreactivity (PSR sort gate)” value is “low polyreactivity”.

Turning to “QVQLVESGGGLVQAGGSLRLSCAASGRTFYRYAMGWYRQAPGKERELVASISSGGSTDYADSVKGRFTISRDNAKNTVYLQMNSLKPEDTAVYYCNAEIVGFWTSYDYWGQGTQVTVSS”, the “polyreactivity (PSR sort gate)” value was “low polyreactivity”.

For the sequence “QVQLVESGGGLVQAGGSLRLSCAASGRTFYRYAMGWYRQAPGKERELVASITRRGGNTYYADSVKGLFTISRDNAKNTVYLQMNSLKPEDTAVYYCAAQSLHPGNWGQGTQVTVSS”, the “polyreactivity (PSR sort gate)” value was “high polyreactivity”.

Regarding “QVQLVESGGGLVQAGGSLRLSCAASGRTFYRYAMGWYRQAPGKERELVATINWTSGSTNYADSVKGRFTISRDNAKNTVYLQMNSLKPEDTAVYYCAARGPVGYGWRYRPWHDYWGQGTQVTVSS”, the “polyreactivity (PSR sort gate)” value is given as “high polyreactivity”.

For the sequence “QVQLVESGGGLVQAGGSLRLSCAASGRTFYRYAMGWYRQAPGNERELVAAISYSTTRTYYADSVKGRFTISRDNAKNTVYLQMNSLKPEDTAVYYCAAYGWTRFGYDYWGQGTQVTVSS”, the “polyreactivity (PSR sort gate)” value is “high polyreactivity”.

Take “QVQLVESGGGLVQAGGSLRLSCAASGRTFYSNAMGWYRQAPGKERELVAAISRRGGRTYYADSVKGRFTISRDNAKNTVYLQMNSLKPEDTAVYYCAADAYLYQPEDYYYWGQGTQVTVSS”: the “polyreactivity (PSR sort gate)” value is on record as “high polyreactivity”.

Turning to “QVQLVESGGGLVQAGGSLRLSCAASGRTFYSNAMGWYRQAPGKERELVAAISSSGARTYYADSVKGRFTISRDNAKNTVYLQMNSLKPEDTAVYYCNAPTQYRYYWGQGTQVTVSS”, the “polyreactivity (PSR sort gate)” value is on record as “high polyreactivity”.

Consider “QVQLVESGGGLVQAGGSLRLSCAASGRTFYSNAMGWYRQAPGKERELVAAITFGGGSTYYADSVKGRFTISRDNAKNTVYLQMNSLKPEDTAVYYCAAEGYKYRFYYWGQGTQVTVSS”, for which the “polyreactivity (PSR sort gate)” value is listed as “low polyreactivity”.

Take “QVQLVESGGGLVQAGGSLRLSCAASGRTFYSNAMGWYRQAPGKERELVATISSSGGSTYYADSVKGRFTISRDNAKNTVYLQMNSLKPEDTAVYYCAADPSGDYWGQGTQVTVSS”: the “polyreactivity (PSR sort gate)” value is listed as “low polyreactivity”.

Take “QVQLVESGGGLVQAGGSLRLSCAASGRTFYSNAMGWYRQAPGKERELVATITLSGGSTDYADSVKGRFTISRDNAKNTVYLQMNSLKPEDTAVYYCNADTDVHLIMGYWGQGTQVTVSS”: the “polyreactivity (PSR sort gate)” value is listed as “low polyreactivity”.

Turning to “QVQLVESGGGLVQAGGSLRLSCAASGRTFYSNTMGWYRQSPGKERELVAAIDWSGGRTYYADSVKGRFTISRDNAKNTVYLQMHSLKPEDTAVYYCNTVGYSLRLRTGGYWGQGTQVTVSS”, the “polyreactivity (PSR sort gate)” value is reported as “high polyreactivity”.

For “QVQLVESGGGLVQAGGSLRLSCAASGRTFYSYAKGWYRQAPGKERELVASITSTGSTYYADSVKGRFTISRDNAKNTVYLQMNSLKPEDTAVYYCAARRQPRYSQRSTYYYWGQGTQVTVSS”, the “polyreactivity (PSR sort gate)” value is given as “high polyreactivity”.

“QVQLVESGGGLVQAGGSLRLSCAASGRTFYSYAMGWYRQAPGKERELVAAINSGGDTYYADSVKGRFTISRDNAKNTVYLQMNSLKPEDTAVYYCAADYYWEMDTWGQGTQVTVSS”: the “polyreactivity (PSR sort gate)” value was “low polyreactivity”.

In the case of “QVQLVESGGGLVQAGGSLRLSCAASGRTFYSYAMGWYRQAPGKERELVAAISSGGTTYYADSVKGRFTISRDNAKNTVYLQMNSLKPEDTAVYYCATSRAWRYRSYYWGQGTQVTVSS”, the “polyreactivity (PSR sort gate)” value is reported as “high polyreactivity”.

As for “QVQLVESGGGLVQAGGSLRLSCAASGRTFYSYAMGWYRQAPGKERELVAAISWNGGSTYYADSVKGRFTISRDNAKNTVYLQMNSLKPEDTAVYYCAAVPLRNRWPNSWPALDYWGQGTQVTVSS”, the “polyreactivity (PSR sort gate)” value is “high polyreactivity”.

Regarding “QVQLVESGGGLVQAGGSLRLSCAASGRTFYSYAMGWYRQAPGKERELVATIRRGGRTNYADSVKGRFTISRDNAKNTVYLQMNSLKPEDTAVYYCAAEDYLSWVTSTYDYWGQGTQVAVSS”, the “polyreactivity (PSR sort gate)” value is “low polyreactivity”.

On to “QVQLVESGGGLVQAGGSLRLSCAASGRTFYSYARGWYRQAPGKERELVAAINSGGDTYYADSVKGRFTISRDNAKNTVYLQMNSLKPEDTAVDYCAADIEVQYITLGVELPYDYWGQGTQVTVSS”, for which the “polyreactivity (PSR sort gate)” value was “low polyreactivity”.
